T1: mouse uPAR on the surface of NCTC L929 cells (mouse, UniProt P35456 24-298)
T1 construct: whole, on cells; also called cell surface mouse uPAR
T1 sequence (looked up): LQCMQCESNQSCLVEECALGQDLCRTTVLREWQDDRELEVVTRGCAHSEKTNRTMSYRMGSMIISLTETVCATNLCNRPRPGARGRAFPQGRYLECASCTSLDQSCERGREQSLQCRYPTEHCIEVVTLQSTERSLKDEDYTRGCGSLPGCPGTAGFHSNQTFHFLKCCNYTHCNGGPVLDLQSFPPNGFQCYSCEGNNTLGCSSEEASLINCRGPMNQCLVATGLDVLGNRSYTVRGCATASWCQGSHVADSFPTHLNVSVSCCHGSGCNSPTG

T2: murine uPAR (form not stated) (mouse, UniProt P35456 24-297, limits assumed)
T2 construct: also called mouse uPAR
T2 sequence (looked up): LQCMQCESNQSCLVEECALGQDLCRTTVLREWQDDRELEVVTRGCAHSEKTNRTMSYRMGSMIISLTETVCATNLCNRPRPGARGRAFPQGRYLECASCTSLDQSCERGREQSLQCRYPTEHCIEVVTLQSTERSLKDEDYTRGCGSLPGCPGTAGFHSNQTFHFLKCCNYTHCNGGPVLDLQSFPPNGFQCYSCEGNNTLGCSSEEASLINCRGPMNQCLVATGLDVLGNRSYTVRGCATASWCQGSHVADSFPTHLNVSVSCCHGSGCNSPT

T3: human Ly6e with a myc tag, expressed in HEK293T cells (human, UniProt Q16553 21-101)
T3 construct: whole, on cells; not shown: myc tag fused on the molecule
T3 sequence (looked up): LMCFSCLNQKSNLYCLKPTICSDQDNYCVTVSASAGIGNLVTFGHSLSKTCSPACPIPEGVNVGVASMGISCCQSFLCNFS

T4: lane 2: murine DI/DII-human DIII uPAR chimera (His-tagged)
T4 construct: The sheet prints only the lane number; also called Murine D1D2/Human D3
T4 uPAR ECD chimera: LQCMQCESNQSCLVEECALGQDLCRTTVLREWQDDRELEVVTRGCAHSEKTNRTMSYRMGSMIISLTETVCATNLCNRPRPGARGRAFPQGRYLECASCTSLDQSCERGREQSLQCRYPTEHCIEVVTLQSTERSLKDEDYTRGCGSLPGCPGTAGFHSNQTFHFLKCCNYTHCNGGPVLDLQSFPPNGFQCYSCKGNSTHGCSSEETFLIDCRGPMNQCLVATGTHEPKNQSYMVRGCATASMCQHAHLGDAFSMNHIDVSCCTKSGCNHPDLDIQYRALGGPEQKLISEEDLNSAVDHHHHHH

T5: lane 4: human DI/DII-murine DIII uPAR chimera (His-tagged)
T5 construct: The sheet prints only the lane number; also called Human D1D2/Murine D3; human D1D2/murineD3uPAR
T5 uPAR ECD chimera: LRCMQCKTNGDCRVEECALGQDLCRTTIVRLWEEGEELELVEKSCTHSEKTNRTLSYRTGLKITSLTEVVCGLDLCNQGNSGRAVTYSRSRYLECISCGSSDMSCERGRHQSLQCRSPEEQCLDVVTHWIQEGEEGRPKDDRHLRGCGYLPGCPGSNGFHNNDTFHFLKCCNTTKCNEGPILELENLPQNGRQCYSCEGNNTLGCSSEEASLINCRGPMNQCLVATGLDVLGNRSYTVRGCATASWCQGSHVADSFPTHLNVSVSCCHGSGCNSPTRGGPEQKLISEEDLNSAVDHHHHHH

B1: fully human monoclonal antibody 2.19.2 (ATCC Accession Number PTA-7474) (antibody, V domains shown)
VH: QVQLVESGGGVVQPGRSLRLSCAASGFTFSSYGMHWVRQAPGKGLEWVAVIWYDGSNKYYADSVKGRFTISRDNSKNTLYLQMNSLRAEDTAVYYCARDQHIVVVTAILDYWGQGTLVTVSS
VL: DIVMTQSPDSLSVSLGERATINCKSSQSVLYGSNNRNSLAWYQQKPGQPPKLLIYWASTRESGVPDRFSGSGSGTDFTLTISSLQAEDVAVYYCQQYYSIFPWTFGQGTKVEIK
B2: fully human monoclonal antibody 4.18.1 (ATCC Accession Number PTA-7476) (antibody, V domains shown)
VH: EVQLVESGGGLIQPGGSLRLSCAASGFTVRNNYMNWVRQAPGKGLEWVSVIYTGGSTYYADSVKGRFTISRDNSRNTLYLQMNSLRAEDTAVYYCAREGAVAGFDYWGQGTLVTVSL
VL: EIVMTQFPATLSMSPGERATLSCRASQSVSSSLAWYQQTPGQAPRLLIYGASTRSTGFPARFSGIGSGTEFTLTISSLQSEDFAVYYCQQYGNWPLTFGQGTRLEIK
B3: fully human monoclonal antibody 2.6.1 (ATCC Accession Number PTA-7475) (antibody, V domains shown)
VH: EVQLVESGGGLIQPGGSLRLSCAASGFTVITNYMNWVRQAPGKGLEWVSIIYTGGSTSYADSVKGRFTVSRDNSKNTLYLHMNSLRVEDTAVYYCAREIAVAGYYGMDVWGQGTTVTVS
VL: DIQMTQSPSSLSASVGDRVTITCRASQGIRNDLGWYQQKPGKAPKRLIYAASSLQSGVPSRFSGSGSGTEFTLTISSLQPEDFATYYCLQHNSYPLTFGGGTRVEIK
notes: also called mAb 2.6.1

Each binder was assayed against T6, human urokinase-type plasminogen activator receptor (uPAR, CD87), cell-bound (human, UniProt Q03405 23-305) (assay: cell-based or functional assay).

Row | Binder | inhibition of adhesion of U937 cells to vitronectin at 2 µg/ml [%] | inhibition of plasminogen activation on U937 cells [%]
1 | B1 | 90 | > 90
2 | B2 | ~90 | > 90
3 | B3 | 90 | > 90

Target: T6, human urokinase-type plasminogen …
Experiment: cell-based or functional assay
Remark: another data set of the same source

Row | Binder | Plasminogen activation inhibition (IC50, ug/ml) [µg/mL]
4 | B1 | 0.053
5 | B2 | 0.067
6 | B3 | 0.073

The binders below were run against T7, soluble recombinant human uPAR/His6 (R&D Systems, Cat. # 807-UK-100) (human, UniProt Q03405 23-303) (assay: low resolution Biacore).
T7 construct: range 1-303; Bought protein; also called soluble uPAR; hu-uPAR
Protocol: (§1) A high-density goat anti-human antibody surface over a CM5 Biacore™ chip was prepared using routine amine coupling. […] Each mAb was captured on a separate flow cell using a 30-second contact time at 10 μL/min followed by a 5-minute wash at a 100 μL/min flow rate for stabilization of the mAb baseline. […] All antigen samples were prepared in the running buffer.

Row | Binder | Kd [nM]
7 | B1 | 0.31
8 | B2 | 1.5
9 | B3 | 0.57

Each binder was assayed against T1, mouse uPAR on the surface of NCTC L929 … (assay: FACS, NCTC L929 mouse cells).
Protocol: (§2) To make the mouse cross-reactivity results conclusive, direct binding of the mAbs to cell-bound mouse uPAR was measured using FACS analysis. The mouse cell line derived from the connective tissue, NCTC L929, was employed for FACS analysis. The harvested cells were resuspended at 50,000 cells/well using FACS buffer into a V-bottom plate which was put on ice. […] After washing, Cy5-labeled goat anti-human IgG Fc at 5 μg/ml and 7AAD at 5 μg/ml was added. The mixtures were incubated for 15 min on ice, washed and resuspended in cold FACS buffer for FACS analysis.

Row | Binder | binding result
10 | B1 | no binding (tested: 6.25 µg/ml)
11 | B2 | no binding (tested: 6.25 µg/ml)
12 | B3 | no binding (tested: 6.25 µg/ml)

What follows are binders tested against T7, soluble recombinant human uPAR/His6 … (assay: high resolution Biacore).
Protocol: (§3) All mAbs were diluted into 10 mM sodium acetate, pH 4.0 for immobilization. […] All experiments were run at 23° C. with a flow rate of 100 μL/min. Serially diluted (2-fold) uPAR samples were randomly injected in triplicate for 90 seconds with several buffer injections interspersed for double referencing. A Biacore™ 2000 biosensor instrument was used for all high resolution experiments. Data were fit globally to a 1:1 interaction model with a term for mass transport included.

Row | Binder | Kd [nM]
13 | B1 | 0.175
14 | B2 | 0.446
15 | B3 | 0.249

The binders below were run against T2, murine uPAR (form not stated) (assay: summary column Murine X-reactivity).

Row | Binder | binding result
16 | B1 | no binding
17 | B2 | no binding
18 | B3 | no binding

These binders were tested against T1, mouse uPAR on the surface of NCTC L929 … (assay: FACS, NCTC L929 mouse cells, mAb 6.25 µg/ml).
Protocol: as §2

Row | Binder | X Geo Mean
19 | B1 | 9.55
20 | B2 | 8.18
21 | B3 | 12.9

What follows are binders tested against T3, human Ly6e with a myc tag, expressed in … (assay: FACS, HEK293T cells expressing Ly6e, supernatant 1:2).
Protocol: The reactivity of the antibodies to the HEK293T transfected to express Ly6e was determined by FACS analysis, using 1:2 hybridoma supernatants, and probed with goat anti-human γ chain conjugated with Cy5 (2.5 mg/ml, Jackson Immune Research). Binding of an anti-myc antibody (10 μg/ml, Invitrogen) to the transfectants served as a positive control, and binding of this antibody to the (Ly6e negative) parental cells served as the negative control.

Row | Binder | binding result
22 | B1 | no binding (tested: GeoMean ratio 1.95)
23 | B2 | no binding (tested: GeoMean ratio 1.95)
24 | B3 | no binding (tested: GeoMean ratio 1.95)

Each binder was assayed against T7, soluble recombinant human uPAR/His6 … (assay: high resolution Biacore, mAb amine coupled, uPAR injected).
Protocol: as §3

Row | Binder | Kd [nM]
25 | B1 | 0.175
26 | B2 | 0.446
27 | B3 | 0.249

These binders were tested against T7, soluble recombinant human uPAR/His6 … (assay: low resolution Biacore, mAb captured by goat anti-human, hu-uPAR 312 nM;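 note: surface plasmon resonance on a CM5 chip with goat anti-human antibody surface made by amine coupling, each mAb from supernatant captured per flow cell, kinetics fitted including mass transport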).
Protocol: as §1
A mass transport coefficient was used in fitting the data.

Row | Binder | Kd [nM] | koff [s⁻¹] | kon [M⁻¹ s⁻¹]
28 | B1 | 0.31 | 4.3e-05 | 140000
29 | B2 | 1.5 | 0.00016 | 110000
30 | B3 | 0.57 | 4.6e-05 | 81000

What follows are binders tested against T6, human urokinase-type plasminogen … (assay: FACS, U937 cells, mAb 5 µg/ml on ice, alexa647 goat anti-human F(ab), not stripped).
Protocol: A cell suspension containing 100,000 cells was pipetted into each well of a V-bottom plates in duplicate. Two V-bottom plates were prepared, one to be kept at 37° C. during internalization with antibody complex, and the other to be incubated at 4° C. Each of the eight uPAR mAbs was incubated with U937 cells at 5 μg/ml on ice for 15 min. Incubation on ice was necessary to prevent internalization of the primary mAbs. The cells were then washed with cold FACS buffer. Cells were subsequently incubated on ice in 100 μl of 5 μg/ml alexa647-labelled goat anti-humanF(ab) (Invitrogen catalogue number A21249) in cold FACS buffer for 15 min. This allowed the goat FAB bind to the bound uPAR mAbs without permitting any internalization. After a 15 minute incubation on ice, one plate was kept on ice, while the other plate was incubated at 37° C. for 1 hour.
Following the 1 hr incubation with the mAb-FAB complex, the cells were washed twice with cold 5% FACS buffer, and 200 μl of Tris(2-carboxyethyl)phosphine HCl (TCEP) was added to each well as a stripping agent. The plates were both incubated with TCEP on ice for 1 hour, followed by washing and resuspending with FACS buffer. 4 μl of 7-Amino-Actinomycin D (7AAD) was added to each well, followed by 10 min incubation on ice before FACS analysis was conducted.

Row | Binder | geo mean cold - TCEP
31 | B1 | 42.7
32 | B2 | 41.2
33 | B3 | 44.3

Target: T4, lane 2: murine DI/DII-human DIII uPAR …
Experiment: Western blot of HEK293T culture supernatants with His-tagged uPAR proteins, probed with the antibody
Description: (§4) Human-murine uPAR chimeras (His-tagged) were expressed in BEK293T cells and uPAR expression was detected using the anti-human uPAR mAbs as indicated.
(§5) Chimeric human-murine uPAR comprising murine D1/humanD2D3; murine D1/human D2/MuD3; and human D1D2/murineD3uPAR each with a C-terminal His tag were expressed as secreted proteins in HEK293T cells.

Row | Binder | binding result
34 | B1 | no binding
35 | B2 | no binding
36 | B3 | no binding

Target: T5, lane 4: human DI/DII-murine DIII uPAR …
Experiment: as above
Description: as §4, §5

Row | Binder | binding result
37 | B1 | binds
38 | B2 | no binding
39 | B3 | no binding
